One data set addresses T1, PhLOX2 (Pyropia haitanensis, UniProt R9UEL2).
T1 construct: gene lox2; monomer by size exclusion
Briefly: UV absorbance of conjugated diene at […] nm, Lineweaver-Burk. It counts as biochemical. The note with it: pH 8.0, 20°C, 12 μM enzyme, substrate 20-200 μM; O2 co-substrate.

Substrate in data set [1]: CC/C=C\C/C=C\C/C=C\C/C=C\C/C=C\CCCC(=O)O
The data set is described as follows: purified protein. It counts as biochemical, Pyropia haitanensis. To be noted: pH 8.0, 20°C, 12 μM enzyme, substrate 20-200 μM, O2 co-substrate.

Substrate in data set [2]: CC/C=C\C/C=C\C/C=C\C/C=C\C/C=C\C/C=C\CCC(=O)O
Briefly: purified protein. It counts as biochemical, Pyropia haitanensis. To be noted: pH 8.0, 20°C, 12 μM enzyme, substrate 20-200 μM, O2 co-substrate.

Substrate in data set [3]: CCCCC/C=C\C/C=C\C/C=C\C/C=C\CCCC(=O)O
Briefly: purified protein. It counts as biochemical, Pyropia haitanensis. To be noted: pH 8.0, 20°C, 12 μM enzyme, substrate 20-200 μM, O2 co-substrate.

Experimental findings from article PMC4319731, “A Lipoxygenase from Red Alga Pyropia haitanensis, a Unique Enzyme Catalyzing the Free Radical Reactions of Polyunsaturated Fatty Acids with Triple Ethylenic Bonds” (PLoS ONE, 2015) are described below.

`CCCCC/C=C\C/C=C\C/C=C\CCCCC(=O)O` [GLA]: the Km (commonly the substrate concentration at which the rate is half of its maximum) at PhLOX2 worked out at 151 µM.

B1: PhLOX2 (Pyropia haitanensis) (protein)
chain: MAHTGTLGGSGCGQPLVAALKAHRTVVDGTIDAPVEAVWAKLRDFGGWPAWWPAMGATAVTPPGPPAVGQERAFTANGRSYVEALTWLDEGAHLLEYRLVSADPPLLDAGARTTFEAVPAGARSTRLTVECAFQPAYNVDAGVIRGGQTAAYESIMEGLQHALVEGPPLRPLRLTVTKNELRREVTAGHLLLTMGGVVLHRLRLTGAGTPVSADAVTVQLSRADAELRLELLDAKDTPVAAGSVAVGALTTPPVTHGVVLSNPHGDPVGTYTVSVVNAPPSSTVEAATALLFSLGKSLAEQLLQTVFFMGHDDGRWAYGEYTAADGTALTMPKYCAVLPPSQAIRPERLGQLFARNAEFLYAQAELLKLLVDTNPPGLEELPQAVRDKLAKEAALQKKIKERVTHEPSPFRLTFGGDHPAPERVIETWRDDEEQAAQMIRGINPMKLRRVTDAAAELPPAFHGLRDDAGRDVAALAAANALFYADYAELMVGELDEETGAYHHQAESAVLDSTVGGVKYWYAPRLVVYKTLAGKLSFLGFTLTRRGDAPGDDEMYTAAGTPPVRYTLAKIHLTCADNQVHQFVSHLGMTHLLAEPFIVAAHNVLPPSHIVSALLAVHFQDTIGINFLARQTLVSTVAPLTDATFSVGTGHALSIFAAAYDGWDFLGDNFVGALAKRGFTADAAADGLHDFYYREDGFRVWNALTRYVSTVLHGHYGAGTAADDAVAADPVLAAWCAEMRDPAAAGVASFPAAFTTVGALVEAVVSIIFLCSAQHAAVNFPQRDYVAYVPNRPDSVRLPMPPRPAAGADNDEAVVGATLPDVAVSVFQTLFAHLLTTPSDAPVSSYAALKEDHPAAWGAFTADLAQLQRDIEARNAALVAANEAPYPYLAPENMPLSIDI
notes: monomer by size exclusion
Turning to B1, in the data set “purified protein [1]”, the Km was determined as 54.09 µM; the kcat – broadly, the maximal rate divided by the concentration of active sites – was found to be 62.5 s⁻¹; the kcat/Km (as a rule, the turnover number divided by the Michaelis constant) was determined as 1.16e+06 M⁻¹ s⁻¹. In addition, in “purified protein [2]”, the Km was determined as 91.59 µM, the kcat was found to be 12.6 s⁻¹ and the kcat/Km is 138000 M⁻¹ s⁻¹. Further, in “purified protein [3]”, the Km was 114.17 µM, the kcat is 47.5 s⁻¹ and the kcat/Km stood at 416000 M⁻¹ s⁻¹.
